Data from article PMC4780012, “SmMYC2a and SmMYC2b played similar but irreplaceable roles in regulating the biosynthesis of tanshinones and phenolic acids in Salvia miltiorrhiza”.

B1: m-HCT6 (dsDNA)
DNA 1: AAGCCTAAAGCTTTTTTTGCTGCTAAACCT
DNA 2: AGGTTTAGCAGCAAAAAAAGCTTTAGGCTT
B2: Wild-type CYP98A14 (dsDNA)
DNA 1: ATTAGTGATTAACACGTGCACATTTATTAA
DNA 2: TTAATAAATGTGCACGTGTTAATCACTAAT
B3: Wild-type HCT6 (dsDNA)
DNA 1: AAGCCTAAAGCTCACATGGCTGCTAAACCT
DNA 2: AGGTTTAGCAGCCATGTGAGCTTTAGGCTT

Tests used:
SmMYC2a-His = SmMYC2a-His (Salvia miltiorrhiza, UniProt A0A088SC56 1-602); assay: EMSA; EMSA: 2 ug purified protein with 2 ug 3'-biotin probe, room temperature, 10 min; buffer, salt and pH not stated; conditions: protein: recombinant; tags: His (text: C-terminal, cleavable; pET32a vector, BamHI/HindIII); chain copies: 2; label: 3' biotin; blunt
SmMYC2b-His = SmMYC2b-His (Salvia miltiorrhiza, UniProt UPI0025AD73A7 1-607); assay: as above; conditions: protein: recombinant; tags: His (text: C-terminal, cleavable; pET32a vector, EcoRV/SalI); chain copies: 2; label: 3' biotin; blunt
Chain of SmMYC2b-His (chain, as listed by the source): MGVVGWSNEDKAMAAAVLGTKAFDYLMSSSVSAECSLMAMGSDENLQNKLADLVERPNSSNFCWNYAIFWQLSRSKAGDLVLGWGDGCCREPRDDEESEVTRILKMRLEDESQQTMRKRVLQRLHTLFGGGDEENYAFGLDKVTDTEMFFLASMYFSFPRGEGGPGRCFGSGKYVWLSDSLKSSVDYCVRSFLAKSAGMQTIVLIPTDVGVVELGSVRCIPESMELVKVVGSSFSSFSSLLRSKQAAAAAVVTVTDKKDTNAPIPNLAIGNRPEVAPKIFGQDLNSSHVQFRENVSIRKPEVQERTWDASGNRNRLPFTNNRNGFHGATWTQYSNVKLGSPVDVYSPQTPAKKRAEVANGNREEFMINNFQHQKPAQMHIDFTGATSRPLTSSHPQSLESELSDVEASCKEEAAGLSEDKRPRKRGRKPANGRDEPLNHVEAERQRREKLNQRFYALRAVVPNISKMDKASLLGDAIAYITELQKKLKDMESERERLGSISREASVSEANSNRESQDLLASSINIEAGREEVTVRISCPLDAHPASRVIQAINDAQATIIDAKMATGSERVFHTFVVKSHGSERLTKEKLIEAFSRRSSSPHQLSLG

Chain of SmMYC2a-His (A0A088SC56 entry or part of it): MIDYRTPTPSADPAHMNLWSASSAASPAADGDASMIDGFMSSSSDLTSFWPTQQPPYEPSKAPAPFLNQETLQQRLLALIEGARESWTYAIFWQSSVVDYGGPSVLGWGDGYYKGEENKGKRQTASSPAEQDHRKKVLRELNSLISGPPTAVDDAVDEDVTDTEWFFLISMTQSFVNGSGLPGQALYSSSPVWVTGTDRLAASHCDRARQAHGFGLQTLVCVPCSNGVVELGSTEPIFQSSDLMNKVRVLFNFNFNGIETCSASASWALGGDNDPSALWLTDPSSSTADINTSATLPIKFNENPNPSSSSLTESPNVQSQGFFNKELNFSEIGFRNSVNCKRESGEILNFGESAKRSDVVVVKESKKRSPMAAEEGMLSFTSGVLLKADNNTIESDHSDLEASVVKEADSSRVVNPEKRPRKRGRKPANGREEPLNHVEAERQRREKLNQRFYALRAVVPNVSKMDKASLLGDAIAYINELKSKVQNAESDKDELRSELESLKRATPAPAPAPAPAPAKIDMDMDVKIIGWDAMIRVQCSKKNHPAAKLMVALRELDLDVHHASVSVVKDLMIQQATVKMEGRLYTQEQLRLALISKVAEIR

Row | Binder | binding result (SmMYC2a-His) | binding result (SmMYC2b-His)
1 | B1 | no binding | –
2 | B2 | binds | binds
3 | B3 | binds | –
